From patent publication US20150218248A1

What follows are binders tested against HLA-A2 molecule (assay: HLA class I stabilization assay, RMA-S/A2 cells, peptide 10 µg/ml, flow cytometry with BB7.2).
Binder MQLMPFGCLL [T790M-5] has an HLA binding capability (%) (MFI increase) of 267%.
Work on IMQLMPFGCLL [T790M-8] yielded an HLA binding capability (%) (MFI increase) of 69.3%.
Work on LIMQLMPFGCL [T790M-7] yielded an HLA binding capability (%) (MFI increase) of 31.2%.
